B1: G3a: non-stabilizing nanobody, SEQ ID NO:50, recognizes the structurally diverse region of NBD1 (protein)
VHH: QVQLQESGGGLVQAGGSLRLSCTASGRAFSWYVMGWFRQAPGKEREFVATVSGNGSRRDYADSVKGRFTISRDNAKNTVYLQMNSLKPEDTAVYYCAASSTYYYTDPEKYDYWGQGTQVTVSS
modifications: G3a Nanobody
B2: T8: nanobody, SEQ ID NO:7, binds epitope 2 including F508, stabilizes WT CFTR but not F508del (protein)
VHH: QVQLQESGGGLVQPGGSLRLSCAASGSTSSINAMGWYRQAPGKQREPVAISSSGGDTRYAEPVKGRFTISRDNAQNKVYLQMNSLKPEDTAVYYCWLNWGRTSVNSWGQGTQVTVSS
modifications: T8 Nanobody amino acid sequence
B3: D12: NBD1-specific CFTR-stabilizing nanobody, SEQ ID NO:2, binds epitope 1 (protein)
VHH: QVQLQESGGGLVQAGSSLRLACAATGSIRSINNMGWYRQAPGKQRGMVAIITRVGNTDYADSVKGRFTISRDNAKNTVYLQMNSLKPEDTATYYCHAEITEQSRPFYLTDDYWGQGTQVTVSS
modifications: D12 Nanobody amino acid sequence
B4: G5: NBD1-binding nanobody, SEQ ID NO:5, same binding site as T2a, T27 and D12 (protein)
VHH: QVQLQESGGGLVQAGGSLRLACAATGSIRNINTMGWYRQAPGKQRDMVAFITRAGNTDYADSVKGRFTISRDNARNTVYLRMNSLKPEDTATYYCHAEIAERSRPFYLTDDYWGQGTQVTVSS
modifications: G5 Nanobody amino acid sequence
B5: T2a: NBD1-specific CFTR-stabilizing nanobody, SEQ ID NO:3, binds epitope 1 (protein)
VHH: QVQLQESGGGLVQAGGSLRLSCAASGSIFRIDAMGWYRQAPGKQRELVAHSTSGGSTDYADSVKGRFTISRDNAKNTVYLQMNSLKPEDTAVYYCNADVRTRWYASNNYWGQGTQVTVSS
modifications: T2a Nanobody amino acid sequence

Columns and labels:
Type in all cases: cell-based
3HA-F508del-CFTR [1] = biological target: T1, 3HA-F508del-CFTR (Homo sapiens, UniProt P13569, DEL508-508); assay: Cell-surface expression of F508del-CFTR in HEK-293T cells by flow cytometry; settings: extracellular 3HA-tag, Nb transfected and/or VX-809
T1 construct: expressed in transfected cells
Protocol: (§1) HEK293T cells expressing F508del-CFTR with an engineered extracellular 3HA tag were transiently transfected with the stabilizing Nbs, as well as control Nbs. The effect on F508del mutant CFTR expression and maturation was measured by flow cytometry, Western Blot and fluorescence microscopy. Next, the effect of the transfection of each Nb was measured in the absence or presence of the correctors VX-809 (lumacaftor) or VX-661 (Tezacaftor).
(§2) Stable cell lines were generated by lentiviral transduction as described in (Ensinck, et al. 2020). CFTR variants were cloned to contain a triple hemagglutinin (3HA) tag in the fourth extracellular loop (EC-loop) of CFTR (Sharma, et al. 2004) for maturation and trafficking studies. For HS-YFP quenching studies, double stable cell lines were generated, co-expressing stable HS-YFP (Galietta, et al. 2001).

3HA-F508del-CFTR [2] = biological target: T1, 3HA-F508del-CFTR; assay: CFTR protein maturation by Western Blot in 3HA-F508del-CFTR HEK-293T cells; settings: for band C (fully glycosylated mature CFTR): FIG. 15, Nb transfected and/or VX-809; for mature CFTR protein band (band C): FIG. 17, Nb transfected and/or VX-661
Protocol: as §1, §2
Cell extracts were separated by SDS-PAGE on 7.5% polyacrylamide gel and transferred to nitrocellulose membrane (Bio-Rad) for immunodetection. After blocking for 1 h with 5% bovine serum albumin (BSA) in Tris-buffered saline added 0.05% Tween-20 (TBST), CFTR was detected using monoclonal antibody mAb 596, IgG2b (CFTR Antibody Distribution Program, dilution 1:46) for 1 h in blocking buffer. Blot was washed 3 times 5 min and incubated with anti-mouse-HRP antibody (Millipore, catalogue number: AP308P, 0.2 μg/ml) for 1 h in TBST. Membrane was washed 3 times for 5 min. CFTR was visualized by chemiluminescence using Luminata Forte Western HRP Substrate (Millipore) and detected with ImageQuant 400 (GE Healthcare).

3HA-F508del-CFTR [3] = biological target: T1, 3HA-F508del-CFTR; assay: Immunostaining of cell-surface expression in F508del-CFTR HEK-293T cells
Protocol: as §2
For PM staining, cells were blocked with 1% BSA-PBS and incubated with HA.11 antibody (#901515, Biolegend 1:1000) at 4° C. on living cells. Next, cells were fixed (4% PFA) followed by Alexa-488 secondary antibody (#A-11001, Thermo Fischer Scientific, 1:500). Nuclei were stained with DAPI (4′,6-diamidino-2-fenylindole, #D1306, Thermo Fischer Scientific, 1:2000) and sections analyzed by confocal microscopy.

T1 sequence (P13569 with tags, fused parts or gaps DEL508-508): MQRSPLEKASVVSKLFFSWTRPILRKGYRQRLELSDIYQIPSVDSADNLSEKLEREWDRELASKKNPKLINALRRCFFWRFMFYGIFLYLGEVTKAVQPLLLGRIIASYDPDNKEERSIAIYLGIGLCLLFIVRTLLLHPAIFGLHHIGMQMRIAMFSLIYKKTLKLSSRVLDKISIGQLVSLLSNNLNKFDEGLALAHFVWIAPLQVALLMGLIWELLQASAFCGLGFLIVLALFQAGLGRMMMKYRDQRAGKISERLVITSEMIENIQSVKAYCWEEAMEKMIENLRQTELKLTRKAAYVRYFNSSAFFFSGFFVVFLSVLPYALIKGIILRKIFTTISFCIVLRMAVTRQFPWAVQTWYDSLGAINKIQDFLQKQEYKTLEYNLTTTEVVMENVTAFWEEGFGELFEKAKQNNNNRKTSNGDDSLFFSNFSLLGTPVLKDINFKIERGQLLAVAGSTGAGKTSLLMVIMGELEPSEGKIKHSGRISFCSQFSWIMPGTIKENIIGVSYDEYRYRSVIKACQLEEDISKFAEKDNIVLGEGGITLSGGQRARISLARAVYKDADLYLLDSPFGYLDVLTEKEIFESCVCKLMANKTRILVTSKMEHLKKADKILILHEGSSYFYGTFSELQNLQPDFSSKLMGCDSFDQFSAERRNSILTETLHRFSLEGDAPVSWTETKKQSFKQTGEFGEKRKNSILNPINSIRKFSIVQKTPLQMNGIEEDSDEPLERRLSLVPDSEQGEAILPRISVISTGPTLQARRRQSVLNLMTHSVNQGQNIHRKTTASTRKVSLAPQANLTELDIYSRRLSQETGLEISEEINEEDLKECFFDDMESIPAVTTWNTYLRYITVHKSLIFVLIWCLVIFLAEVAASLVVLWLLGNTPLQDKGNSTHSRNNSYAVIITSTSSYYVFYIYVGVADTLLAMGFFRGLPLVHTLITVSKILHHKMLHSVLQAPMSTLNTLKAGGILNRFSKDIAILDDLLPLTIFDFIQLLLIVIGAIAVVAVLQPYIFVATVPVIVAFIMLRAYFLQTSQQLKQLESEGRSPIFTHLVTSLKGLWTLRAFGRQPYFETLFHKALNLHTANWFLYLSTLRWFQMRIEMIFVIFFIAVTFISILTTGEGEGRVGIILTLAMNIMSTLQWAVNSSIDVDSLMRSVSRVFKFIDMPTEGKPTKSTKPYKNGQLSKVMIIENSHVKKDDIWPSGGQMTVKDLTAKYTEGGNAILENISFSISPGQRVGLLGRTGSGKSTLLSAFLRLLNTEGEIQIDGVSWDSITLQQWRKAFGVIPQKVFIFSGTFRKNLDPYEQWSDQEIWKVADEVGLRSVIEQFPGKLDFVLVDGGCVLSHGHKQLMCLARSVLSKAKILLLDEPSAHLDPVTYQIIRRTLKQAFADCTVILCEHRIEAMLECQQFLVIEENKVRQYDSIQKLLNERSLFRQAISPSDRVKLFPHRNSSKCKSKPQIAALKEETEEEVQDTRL

Molecule | cell-surface expression of F508del-CFTR (3HA-F508del-CFTR [1]) | band C (fully glycosylated mature CFTR) (3HA-F508del-CFTR [2]) | mature CFTR protein band (band C) (3HA-F508del-CFTR [2]) | cell-surface immunostaining (3HA-F508del-CFTR [3])
B1 | No effect | no effect | detectable | 
B2 | No effect | no effect |  | 
B3 | moderate increase in surface expression |  |  | 
B4 | moderate increase in surface expression |  |  | 
B5 | moderate increase in surface expression | detectable | only a minor effect | moderate staining
